B1: Nb2 (anti-BCMA nanobody 2 of the cilta-cel CAR) (VHH)
VHH: EVQLVESGGGLVQAGGSLRLSCAASGRTFTMGWFRQAPGKEREFVAAISLSPTLAYYAESVKGRFTISRDNAKNTVVLQMNSLKPEDTALYYCAADRKSVMSIRPDYWGQGTQVTVSS
notes: VHH from a phage display library of llamas immunized with BCMA; calculated Mw 13.6 kDa; source: provided by GenScript
B2: Nb1 (anti-BCMA nanobody 1 of the cilta-cel CAR) (VHH)
VHH: QVKLEESGGGLVQAGRSLRLSCAASEHTFSSHVMGWFRQAPGKERESVAVIGWRDISTSYADSVKGRFTISRDNAKKTLYLQMNSLKPEDTAVYYCAARRIDAADFDSWGQGTQVTVSS
notes: VHH from a phage display library of llamas immunized with BCMA; calculated Mw 13.9 kDa; source: provided by GenScript

Assays:
Conditions in all cases: both partners purified
[1] = molecular target: T1, BCMAECD-Fc (dimerized, Fc-tagged human BCMA extracellular domain) (human, UniProt Q02223-1); experiment: SPR; Biacore 8K, 25 °C, 10 mM HEPES pH 7.4, 150 mM NaCl, 0.05% Tween 20; BCMAECD-Fc immobilised by amine coupling on CM5; nanobodies as analytes (five two-fold dilutions); Langmuir model for Nb1 and Nb2, heterogeneous ligand model for NbT
T1 construct: B-cell maturation antigen (BCMA), human, extracellular domain; also called Fc-tagged human BCMAECD

[2] = molecular target: T2, BCMAECD (synthesized extracellular domain of human B-cell maturation antigen, residues 1-54) (human, UniProt Q02223-1); experiment: AUC; sedimentation velocity; complexes formed by mixing nanobody with excess BCMAECD (molar ratio 1:4, overnight at 4 °C); 1 mg/ml, 45,000 rpm, 20 mM Tris pH 8.0, 100 mM NaCl, 4 °C
T2 construct: B-cell maturation antigen (BCMA), human, extracellular domain, residues 1-54 of UniProt Q02223-1; synthesized, without glycosylation; calculated Mw 5.9 kDa; also called BCMA extracellular domain; BCMA ectodomain; source: synthetic peptide (GL Biochem, Shanghai)

[3] = molecular target: T3, BCMAECD-His (monomeric, His-tagged human BCMA extracellular domain) (Homo sapiens, UniProt Q02223-1); experiment: SPR; Biacore 8K, 25 °C, 10 mM HEPES pH 7.4, 150 mM NaCl, 0.05% Tween 20; BCMAECD-His immobilised by amine coupling on CM5; nanobodies as analytes (five two-fold dilutions); Langmuir model for Nb1 and Nb2, heterogeneous ligand model for NbT
T3 construct: B-cell maturation antigen (BCMA), human, extracellular domain; also called His-tagged human BCMAECD

[4] = molecular target: T2, BCMAECD (synthesized extracellular …); experiment: SEC; nanobody-BCMAECD complexes (mixed 1:4, overnight at 4 °C, Superdex 75)

T2 sequence (Q02223 1-54): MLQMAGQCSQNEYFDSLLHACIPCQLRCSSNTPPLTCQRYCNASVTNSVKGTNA
T3 sequence (Q02223 1-54): as above
T1 sequence (Q02223 1-54): as above

Binder | Kd [1] | stoichiometry N [2] | Kd [3] | stoichiometry N [4]
B1 | 3.7 nM | 1 Nb2 per BCMAECD (printed 1:1) | 4.2 nM | ~1 Nb2 per BCMAECD (printed 1:1)
B2 | 0.67 nM | 1 Nb1 per BCMAECD (printed 2:2) | 3.9 nM | ~1 Nb1 per BCMAECD (printed 2:2)

— paper PMC10703879, “Antigen-induced chimeric antigen receptor multimerization amplifies on-tumor cytotoxicity” (Signal Transduction and Targeted Therapy, 2023)
